These are literature values, as cited in article PMC7914648 (Pharmaceuticals, 2021).

One data set deals with mice. As to conditions: cited from earlier work. As for the experimental part: While in the name of “reduction” a proper toxicological study was not carried out, the toxicity of TAT-PAPTP was evident. Peptide toxicity issues are not often discussed in the literature, but peptides, in particular arginine-rich ones, can be toxic in vivo as well as for cultured cells. […] Here the TAT-PAPTP conjugate was administered at 5 µmol/kg bw. However, conjugates can behave differently and have different toxicities depending on the attached “cargo” [54, 65, 66], as confirmed by the results of the present ...

For data set [1] the following is noted: mouse, in vivo, iv; cited from earlier work.

For the substance “TAT47–57: arginine-rich TAT peptide segment”, the LD50 in the data set with mice was 17.5 µmol/kg bw. Take TWPKHFDKHTFYSILKLGKH [L57]: in data set [1], the brain input entry is “approximately 0.04 % of the injected dose”.
